# Measured values published in US20260092091A1.
# Biological target: CXCR2 expressed on 300-19 pre-B cells
# Assay: cell-based or functional assay
substance,measurement,value
"human wild-type GCP-2 (granulocyte chemotactic protein 2, CXCL6), recombinant (from UniProt P80162 38-114) (ligand)","chemotaxis in Boyden chambers (Transwell), optimal concentration",50 nM
same,"transendothelial migration in Boyden chambers (EA.hy 926 monolayer), optimal concentration",50 nM
